Assay results published in publication PMC3393660, “Structural Interaction and Functional Regulation of Polycystin-2 by Filamin” (PLoS ONE, 2012).

What was measured:
[1] = biological target: T1, His-FLNBC (human, UniProt O75369 2105-2602); test: pull-down; pre-cleared E. coli extracts (250 µl) with GST-PC2N or GST-PC2C incubated with purified His-FLN C-terminus (2 µg); 150 mM NaCl, 1.0 mM CaCl2, 50 mM Tris pH 7.5, room temperature; glutathione-agarose beads; immunoblot with anti-His; settings: one partner purified
T1 construct: Filamin-B, human, C-terminus aa 2105-2602; also called His-tagged FLNBC; not shown: His tag, N-terminal, kept
T1 sequence (looked up): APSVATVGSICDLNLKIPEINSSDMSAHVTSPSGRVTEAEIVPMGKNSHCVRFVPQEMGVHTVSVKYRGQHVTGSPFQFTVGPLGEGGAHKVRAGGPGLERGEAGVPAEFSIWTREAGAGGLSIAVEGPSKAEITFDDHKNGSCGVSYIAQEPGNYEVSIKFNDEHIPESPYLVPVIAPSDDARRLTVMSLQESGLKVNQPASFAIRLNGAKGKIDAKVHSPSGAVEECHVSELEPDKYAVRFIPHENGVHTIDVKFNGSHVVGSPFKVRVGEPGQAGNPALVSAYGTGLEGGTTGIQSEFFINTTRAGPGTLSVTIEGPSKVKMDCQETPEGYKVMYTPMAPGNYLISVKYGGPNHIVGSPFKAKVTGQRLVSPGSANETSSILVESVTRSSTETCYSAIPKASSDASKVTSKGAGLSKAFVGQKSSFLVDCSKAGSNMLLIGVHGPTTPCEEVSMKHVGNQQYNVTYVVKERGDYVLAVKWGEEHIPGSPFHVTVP

[2] = biological target: T2, His-FLNCC (human, UniProt Q14315 2144-2725); test: as above; settings: one partner purified
T2 construct: Filamin-C, human, C-terminus aa A2144-P2725; also called His-tagged FLNCC; not shown: His tag, N-terminal, kept
T2 sequence (looked up): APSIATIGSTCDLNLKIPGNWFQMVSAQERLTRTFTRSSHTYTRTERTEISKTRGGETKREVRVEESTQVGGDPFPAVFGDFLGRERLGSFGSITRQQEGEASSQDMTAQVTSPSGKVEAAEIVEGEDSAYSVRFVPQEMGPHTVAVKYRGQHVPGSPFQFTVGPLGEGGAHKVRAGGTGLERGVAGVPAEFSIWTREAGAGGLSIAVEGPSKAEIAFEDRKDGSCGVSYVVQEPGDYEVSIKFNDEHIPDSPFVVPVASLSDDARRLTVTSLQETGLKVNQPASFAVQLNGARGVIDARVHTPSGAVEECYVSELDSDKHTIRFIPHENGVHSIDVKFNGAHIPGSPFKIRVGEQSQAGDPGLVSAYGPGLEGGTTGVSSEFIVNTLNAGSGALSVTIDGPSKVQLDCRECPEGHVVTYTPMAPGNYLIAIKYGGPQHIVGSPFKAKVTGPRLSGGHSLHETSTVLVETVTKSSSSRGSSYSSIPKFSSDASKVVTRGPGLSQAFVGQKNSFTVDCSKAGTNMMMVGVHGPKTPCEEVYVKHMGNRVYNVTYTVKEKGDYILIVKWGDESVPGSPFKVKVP

[3] = biological target: T3, His-FLNAC (human, UniProt P21333 2150-2647); test: pull-down; purified GST fusion protein (2 µg) incubated with purified His-FLN C-terminus (2 µg); 150 mM NaCl, 1.0 mM CaCl2, 50 mM Tris pH 7.5, room temperature; glutathione-agarose beads; immunoblot with anti-His; settings: both partners purified
T3 construct: Filamin-A, human, C-terminus aa 2150-2647; also called His-tagged FLNAC; not shown: His tag, N-terminal, kept
T3 sequence (looked up): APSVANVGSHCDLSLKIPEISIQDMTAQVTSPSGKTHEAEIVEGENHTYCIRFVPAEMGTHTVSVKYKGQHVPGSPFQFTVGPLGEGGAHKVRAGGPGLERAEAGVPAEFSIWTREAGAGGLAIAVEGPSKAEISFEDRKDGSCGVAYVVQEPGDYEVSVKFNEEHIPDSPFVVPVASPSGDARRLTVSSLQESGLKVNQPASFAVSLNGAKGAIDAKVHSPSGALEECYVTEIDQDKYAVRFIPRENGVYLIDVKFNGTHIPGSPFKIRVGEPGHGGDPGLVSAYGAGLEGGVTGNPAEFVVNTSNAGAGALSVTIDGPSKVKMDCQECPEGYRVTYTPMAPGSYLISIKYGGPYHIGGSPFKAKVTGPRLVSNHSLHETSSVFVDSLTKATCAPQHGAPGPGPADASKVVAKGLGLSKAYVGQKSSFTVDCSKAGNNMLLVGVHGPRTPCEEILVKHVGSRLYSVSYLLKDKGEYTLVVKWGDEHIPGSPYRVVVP

[4] = biological target: T3, His-FLNAC; test: pull-down; pre-cleared E. coli extracts (250 µl) with GST-PC2N or GST-PC2C incubated with purified His-FLN C-terminus (2 µg); 150 mM NaCl, 1.0 mM CaCl2, 50 mM Tris pH 7.5, room temperature; glutathione-agarose beads; immunoblot with anti-His; settings: one partner purified

Measured: binding result

B1: GST-PC2N (domain or fragment, human, UniProt Q13563 1-215, looked up)
chain: MVNSSRVQPQQPGDAKRPPAPRAPDPGRLMAGCAAVGASLAAPGGLCEQRGLEIEMQRIRQAAARDPPAGAAASPSPPLSSCSRQAWSRDNPGFEAEEEEEEVEGEEGGMVVEMDVEWRPGSRRSAASSAVSSVGARSRGLGGYHGAGHPSGRRRRREDQGPPCPSPVGGGDPLHRHLPLEGQPPRVAWAERLVRGLRGLWGTRLMEESSTNREK
notes: Polycystin-2, human, N-terminus PC2N, amino acids 1-215; in pGEX5X; also called GST-tagged PC2N; source: E. coli BL21 (DE3), in lysate; also purified (commercial GST purification kit)
binds: [1] | [2] | [3]

B2: GST-PC2C (domain or fragment, human, UniProt Q13563 682-968, looked up)
chain: DTYSEVKSDLAQQKAEMELSDLIRKGYHKALVKLKLKKNTVDDISESLRQGGGKLNFDELRQDLKGKGHTDAEIEAIFTKYDQDGDQELTEHEHQQMRDDLEKEREDLDLDHSSLPRPMSSRSFPRSLDDSEEDDDEDSGHSSRRRGSISSGVSYEEFQVLVRRVDRMEHSIGSIVSKIDAVIVKLEIMERAKLKRREVLGRLLDGVAEDERLGRDSEIHREQMERLVREELERWESDDAASQISHGLGTPVGLNGQPRPRSSRPSSSQSTEGMEGAGGNGSSNVHV
notes: Polycystin-2, human, C-terminus PC2C, amino acids 682-968; in pGEX5X; also called GST-tagged PC2C; source: E. coli BL21 (DE3), in lysate; also purified (commercial GST purification kit)
binds: [1] | [4] | [2]
